Measurements taken from IntAct's records for PubMed 29892012.

B1: Transmembrane protein 218 (Homo sapiens), A2RU14 (parent)
chain: MAGTVLGVGAGVFILALLWVAVLLLCVLLSRASGAARFSVIFLFFGAVIITSVLLLFPRAGEFPAPEVEVKIVDDFFIGRYVLLAFLSAIFLGGLFLVLIHYVLEPIYAKPLHSY
partner: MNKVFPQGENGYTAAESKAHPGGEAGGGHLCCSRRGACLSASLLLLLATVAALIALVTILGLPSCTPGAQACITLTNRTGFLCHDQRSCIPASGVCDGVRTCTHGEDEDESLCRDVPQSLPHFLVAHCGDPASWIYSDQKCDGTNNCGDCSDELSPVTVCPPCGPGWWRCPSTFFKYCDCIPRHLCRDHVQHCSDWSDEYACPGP
B2: Chaperone Ric-8A (Homo sapiens), Q9NPQ8 (parent)
chain: MEPRAVAEAVETGEEDVIMEALRSYNQEHSQSFTFDDAQQEDRKRLAELLVSVLEQGLPPSHRVIWLQSVRILSRDRNCLDPFTSRQSLQALACYADISVSEGSVPESADMDVVLESLKCLCNLVLSSPVAQMLAAEARLVVKLTERVGLYRERSFPHDVQFFDLRLLFLLTALRTDVRQQLFQELKGVRLLTDTLELTLGVTPEGNPPPTLLPSQETERAMEILKVLFNITLDSIKGEVDEEDAALYRHLGTLLRHCVMIATAGDRTEEFHGHAVNLLGNLPLKCLDVLLTLEPHGDSTEFMGVNMDVIRALLIFLEKRLHKTHRLKESVAPVLSVLTECARMHRPARKFLKAQVLPPLRDVRTRPEVGEMLRNKLVRLMTHLDTDVKRVAAEFLFVLCSESVPRFIKYTGYGNAAGLLAARGLMAGGRPEGQYSEDEDTDTDEYKEAKASINPVTGRVEEKPPNPMEGMTEEQKEHEAMKLVTMFDKLSRNRVIQPMGMSPRGHLTSLQDAMCETMEQQLSSDPDSDPD
B3: Chaperone Ric-8A (Homo sapiens), Q9NPQ8 (parent)
chain: B2 chain
partner: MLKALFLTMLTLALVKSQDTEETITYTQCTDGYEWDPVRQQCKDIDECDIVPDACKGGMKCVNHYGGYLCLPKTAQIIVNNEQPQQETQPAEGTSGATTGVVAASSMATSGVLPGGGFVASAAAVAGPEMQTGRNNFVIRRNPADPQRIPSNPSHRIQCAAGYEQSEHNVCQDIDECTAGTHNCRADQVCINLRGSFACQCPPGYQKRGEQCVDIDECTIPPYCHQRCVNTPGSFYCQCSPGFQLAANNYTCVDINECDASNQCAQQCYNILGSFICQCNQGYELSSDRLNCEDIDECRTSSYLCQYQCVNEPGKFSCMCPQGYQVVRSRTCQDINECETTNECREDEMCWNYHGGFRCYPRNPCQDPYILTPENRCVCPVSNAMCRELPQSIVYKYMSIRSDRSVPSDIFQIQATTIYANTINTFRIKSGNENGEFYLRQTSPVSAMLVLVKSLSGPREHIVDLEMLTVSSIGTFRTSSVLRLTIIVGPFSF
B4: Alpha-ketoglutarate-dependent dioxygenase alkB homolog 3 (Homo sapiens), Q96Q83 (parent)
chain: MEEKRRRARVQGAWAAPVKSQAIAQPATTAKSHLHQKPGQTWKNKEHHLSDREFVFKEPQQVVRRAPEPRVIDREGVYEISLSPTGVSRVCLYPGFVDVKEADWILEQLCQDVPWKQRTGIREDITYQQPRLTAWYGELPYTYSRITMEPNPHWHPVLRTLKNRIEENTGHTFNSLLCNLYRNEKDSVDWHSDDEPSLGRCPIIASLSFGATRTFEMRKKPPPEENGDYTYVERVKIPLDHGTLLIMEGATQADWQHRVPKEYHSREPRVNLTFRTVYPDPRGAPW
partner: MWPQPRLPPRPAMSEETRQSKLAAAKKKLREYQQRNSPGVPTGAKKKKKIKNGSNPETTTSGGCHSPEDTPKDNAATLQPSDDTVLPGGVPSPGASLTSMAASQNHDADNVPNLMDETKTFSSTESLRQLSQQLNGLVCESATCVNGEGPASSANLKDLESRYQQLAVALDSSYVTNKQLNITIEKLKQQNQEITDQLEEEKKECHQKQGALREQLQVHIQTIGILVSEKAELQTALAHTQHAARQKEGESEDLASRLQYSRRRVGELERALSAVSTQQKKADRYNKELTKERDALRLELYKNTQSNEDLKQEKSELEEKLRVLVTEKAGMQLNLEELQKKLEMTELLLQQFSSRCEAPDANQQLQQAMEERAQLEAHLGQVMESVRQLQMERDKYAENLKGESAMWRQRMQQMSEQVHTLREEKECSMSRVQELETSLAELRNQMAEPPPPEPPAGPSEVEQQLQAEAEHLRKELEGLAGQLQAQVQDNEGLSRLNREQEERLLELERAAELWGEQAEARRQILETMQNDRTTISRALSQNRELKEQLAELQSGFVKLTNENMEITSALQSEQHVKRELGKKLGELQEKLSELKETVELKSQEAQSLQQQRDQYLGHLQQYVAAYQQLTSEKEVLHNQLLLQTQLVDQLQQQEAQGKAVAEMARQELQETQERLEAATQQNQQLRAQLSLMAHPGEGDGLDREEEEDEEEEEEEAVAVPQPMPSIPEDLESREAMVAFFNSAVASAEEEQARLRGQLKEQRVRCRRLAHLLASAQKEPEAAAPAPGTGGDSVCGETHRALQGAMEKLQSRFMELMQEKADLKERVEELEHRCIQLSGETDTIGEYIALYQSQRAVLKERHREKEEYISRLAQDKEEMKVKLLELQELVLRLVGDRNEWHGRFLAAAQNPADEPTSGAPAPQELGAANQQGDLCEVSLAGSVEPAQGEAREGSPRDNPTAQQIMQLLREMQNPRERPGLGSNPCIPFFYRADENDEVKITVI
B5: Alpha-ketoglutarate-dependent dioxygenase alkB homolog 3 (Homo sapiens), Q96Q83 (parent)
chain: B4 chain
B6: Ribonuclease inhibitor (Homo sapiens), P13489 (parent)
chain: MSLDIQSLDIQCEELSDARWAELLPLLQQCQVVRLDDCGLTEARCKDISSALRVNPALAELNLRSNELGDVGVHCVLQGLQTPSCKIQKLSLQNCCLTGAGCGVLSSTLRTLPTLQELHLSDNLLGDAGLQLLCEGLLDPQCRLEKLQLEYCSLSAASCEPLASVLRAKPDFKELTVSNNDINEAGVRVLCQGLKDSPCQLEALKLESCGVTSDNCRDLCGIVASKASLRELALGSNKLGDVGMAELCPGLLHPSSRLRTLWIWECGITAKGCGDLCRVLRAKESLKELSLAGNELGDEGARLLCETLLEPGCQLESLWVKSCSFTAACCSHFSSVLAQNRFLLELQISNNRLEDAGVRELCQGLGQPGSVLRVLWLADCDVSDSSCSSLAATLLANHSLRELDLSNNCLGDAGILQLVESVRQPGCLLEQLVLYDIYWSEEMEDRLQALEKDKPSLRVIS
B7: Syntaxin-3 (Homo sapiens), Q13277 (parent)
chain: MKDRLEQLKAKQLTQDDDTDAVEIAIDNTAFMDEFFSEIEETRLNIDKISEHVEEAKKLYSIILSAPIPEPKTKDDLEQLTTEIKKRANNVRNKLKSMEKHIEEDEVRSSADLRIRKSQHSVLSRKFVEVMTKYNEAQVDFRERSKGRIQRQLEITGKKTTDEELEEMLESGNPAIFTSGIIDSQISKQALSEIEGRHKDIVRLESSIKELHDMFMDIAMLVENQGEMLDNIELNVMHTVDHVEKARDETKKAVKYQSQARKKLIIIIVLVVVLLGILALIIGLSVGLN
B8: Syntaxin-3 (Homo sapiens), Q13277 (parent)
chain: B7 chain
partner: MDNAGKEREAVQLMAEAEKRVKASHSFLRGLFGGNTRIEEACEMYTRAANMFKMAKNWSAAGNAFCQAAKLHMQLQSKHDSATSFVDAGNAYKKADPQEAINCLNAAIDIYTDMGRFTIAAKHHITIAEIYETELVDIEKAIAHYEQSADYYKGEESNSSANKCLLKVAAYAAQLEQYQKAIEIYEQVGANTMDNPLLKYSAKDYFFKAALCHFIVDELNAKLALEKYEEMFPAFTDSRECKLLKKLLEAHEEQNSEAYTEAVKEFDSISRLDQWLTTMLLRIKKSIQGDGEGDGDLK
B9: Liprin-alpha-1 (Homo sapiens), Q13136 (parent)
chain: MMCEVMPTISEAEGPPGGGGGHGSGSPSQPDADSHFEQLMVSMLEERDRLLDTLRETQETLALTQGKLHEVGHERDSLQRQLNTALPQEFAALTKELNVCREQLLEREEEIAELKAERNNTRLLLEHLECLVSRHERSLRMTVVKRQAQSPAGVSSEVEVLKALKSLFEHHKALDEKVRERLRVALERCSLLEEELGATHKELMILKEQNNQKKTLTDGVLDINHEQENTPSTSGKRSSDGSLSHEEDLAKVIELQEIISKQSREQSQMKERLASLSSHVTELEEDLDTARKDLIKSEEMNTKLQRDVREAMAQKEDMEERITTLEKRYLAAQREATSVHDLNDKLENEIANKDSMHRQTEDKNRQLQERLELAEQKLQQTLRKAETLPEVEAELAQRVAALSKAEERHGNIEERLRQMEAQLEEKNQELQRARQREKMNEEHNKRLSDTVDKLLSESNERLQLHLKERMAALEDKNSLLREVESAKKQLEETQHDKDQLVLNIEALRAELDHMRLRGASLHHGRPHLGSVPDFRFPMADGHTDSYSTSAVLRRPQKGRLAALRDEPSKVQTLNEQDWERAQQASVLANVAQAFESDADVSDGEDDRDTLLSSVDLLSPSGQADAHTLAMMLQEQLDAINKEIRLIQEEKENTEQRAEEIESRVGSGSLDNLGRFRSMSSIPPYPASSLASSSPPGSGRSTPRRIPHSPAREVDRLGVMTLLPPSREEVRDDKTTIKCETSPPSSPRALRLDRLHKGALHTVSHEDIRDIRNSTGSQDGPVSNPSSSNSSQDSLHKAPKKKGIKSSIGRLFGKKEKGRPGQTGKEALGQAGVSETDNSSQDALGLSKLGGQAEKNRKLQKKHELLEEARRQGLPFAQWDGPTVVVWLELWVGMPAWYVAACRANVKSGAIMSALSDTEIQREIGISNPLHRLKLRLAIQEIMSLTSPSAPPTSRTTLAYGDMNHEWIGNEWLPSLGLPQYRSYFMECLVDARMLDHLTKKDLRGQLKMVDSFHRNSFQCGIMCLRRLNYDRKELERKREESQSEIKDVLVWSNDRVIRWILSIGLKEYANNLIESGVHGALLALDETFDFSALALLLQIPTQNTQARAVLEREFNNLLVMGTDRRFDEDDDKSFRRAPSWRKKFRPKDIRGLAAGSAETLPANFRVTSSMSSPSMQPKKMQMDGNVSGTQRLDSATVRTYSC
partner: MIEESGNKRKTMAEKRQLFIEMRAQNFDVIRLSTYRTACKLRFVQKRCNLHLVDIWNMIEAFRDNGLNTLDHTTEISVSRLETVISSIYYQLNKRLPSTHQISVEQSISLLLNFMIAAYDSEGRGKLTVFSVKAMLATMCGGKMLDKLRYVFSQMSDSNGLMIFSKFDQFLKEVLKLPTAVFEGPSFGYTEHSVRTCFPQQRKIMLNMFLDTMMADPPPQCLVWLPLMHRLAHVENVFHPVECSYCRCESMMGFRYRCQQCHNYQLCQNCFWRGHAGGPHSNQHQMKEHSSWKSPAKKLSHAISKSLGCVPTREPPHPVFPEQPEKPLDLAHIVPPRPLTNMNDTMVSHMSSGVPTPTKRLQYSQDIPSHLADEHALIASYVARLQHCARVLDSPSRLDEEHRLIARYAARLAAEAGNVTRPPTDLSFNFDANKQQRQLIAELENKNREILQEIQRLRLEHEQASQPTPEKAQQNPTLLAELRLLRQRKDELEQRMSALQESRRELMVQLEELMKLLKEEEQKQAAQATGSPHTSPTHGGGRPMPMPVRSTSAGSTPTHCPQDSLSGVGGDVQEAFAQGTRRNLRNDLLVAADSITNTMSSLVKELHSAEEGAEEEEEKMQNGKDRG

Variants of: B1
Details: with lrad1_human LDLRAD1, Q5T700

Row | Variant | effect of a mutation on the interaction
1 | P66S | with no effect

Variants of: B2
Details: with praf1_human RABAC1, Q9UI14
Sequence of praf1_human RABAC1, Q9UI14 (Q9UI14 whole entry): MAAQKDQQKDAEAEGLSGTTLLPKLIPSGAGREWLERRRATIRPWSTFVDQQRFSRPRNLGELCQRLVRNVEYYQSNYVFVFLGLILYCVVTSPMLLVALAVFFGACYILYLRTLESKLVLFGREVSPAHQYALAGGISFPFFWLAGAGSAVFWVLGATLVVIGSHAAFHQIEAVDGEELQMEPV

Row | Variant | effect of a mutation on the interaction
2 | K319E | with no effect

Variants of: B2
Details: with ubql1_human UBQLN1, Q9UMX0
Sequence of ubql1_human UBQLN1, Q9UMX0 (Q9UMX0 whole entry): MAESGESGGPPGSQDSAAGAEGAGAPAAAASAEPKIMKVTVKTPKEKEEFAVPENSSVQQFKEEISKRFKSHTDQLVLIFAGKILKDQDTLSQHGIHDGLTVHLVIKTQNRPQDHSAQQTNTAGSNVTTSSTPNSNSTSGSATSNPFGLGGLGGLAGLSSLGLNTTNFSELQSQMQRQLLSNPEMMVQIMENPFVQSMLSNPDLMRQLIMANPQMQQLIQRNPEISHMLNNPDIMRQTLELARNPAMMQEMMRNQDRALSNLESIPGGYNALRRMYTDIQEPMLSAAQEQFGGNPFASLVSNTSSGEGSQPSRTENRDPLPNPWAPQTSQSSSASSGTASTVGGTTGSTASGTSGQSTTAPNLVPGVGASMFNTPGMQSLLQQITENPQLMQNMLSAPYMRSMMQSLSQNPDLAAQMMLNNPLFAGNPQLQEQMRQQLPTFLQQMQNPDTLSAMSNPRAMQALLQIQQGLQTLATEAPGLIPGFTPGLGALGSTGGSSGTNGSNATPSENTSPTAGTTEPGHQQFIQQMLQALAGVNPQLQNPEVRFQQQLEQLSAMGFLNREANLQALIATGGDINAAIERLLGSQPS

Row | Variant | effect of a mutation on the interaction
3 | K319E | with no effect

Variants of: B2
Details: with sdcb1_human SDCBP
Target sequence in this assay (O00560 whole entry): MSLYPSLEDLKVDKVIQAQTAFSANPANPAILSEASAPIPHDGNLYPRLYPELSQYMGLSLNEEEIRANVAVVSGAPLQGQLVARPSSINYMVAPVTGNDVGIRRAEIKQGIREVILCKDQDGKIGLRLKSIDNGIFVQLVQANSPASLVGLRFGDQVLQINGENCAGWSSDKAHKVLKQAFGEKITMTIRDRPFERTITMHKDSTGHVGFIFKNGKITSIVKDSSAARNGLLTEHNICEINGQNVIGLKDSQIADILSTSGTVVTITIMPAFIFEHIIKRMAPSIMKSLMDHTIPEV

Row | Variant | effect of a mutation on the interaction
4 | K319E | with no effect

Variants of: B2
Details: with nutm1_human NUTM1, Q86Y26
Sequence of nutm1_human NUTM1, Q86Y26 (Q86Y26 whole entry): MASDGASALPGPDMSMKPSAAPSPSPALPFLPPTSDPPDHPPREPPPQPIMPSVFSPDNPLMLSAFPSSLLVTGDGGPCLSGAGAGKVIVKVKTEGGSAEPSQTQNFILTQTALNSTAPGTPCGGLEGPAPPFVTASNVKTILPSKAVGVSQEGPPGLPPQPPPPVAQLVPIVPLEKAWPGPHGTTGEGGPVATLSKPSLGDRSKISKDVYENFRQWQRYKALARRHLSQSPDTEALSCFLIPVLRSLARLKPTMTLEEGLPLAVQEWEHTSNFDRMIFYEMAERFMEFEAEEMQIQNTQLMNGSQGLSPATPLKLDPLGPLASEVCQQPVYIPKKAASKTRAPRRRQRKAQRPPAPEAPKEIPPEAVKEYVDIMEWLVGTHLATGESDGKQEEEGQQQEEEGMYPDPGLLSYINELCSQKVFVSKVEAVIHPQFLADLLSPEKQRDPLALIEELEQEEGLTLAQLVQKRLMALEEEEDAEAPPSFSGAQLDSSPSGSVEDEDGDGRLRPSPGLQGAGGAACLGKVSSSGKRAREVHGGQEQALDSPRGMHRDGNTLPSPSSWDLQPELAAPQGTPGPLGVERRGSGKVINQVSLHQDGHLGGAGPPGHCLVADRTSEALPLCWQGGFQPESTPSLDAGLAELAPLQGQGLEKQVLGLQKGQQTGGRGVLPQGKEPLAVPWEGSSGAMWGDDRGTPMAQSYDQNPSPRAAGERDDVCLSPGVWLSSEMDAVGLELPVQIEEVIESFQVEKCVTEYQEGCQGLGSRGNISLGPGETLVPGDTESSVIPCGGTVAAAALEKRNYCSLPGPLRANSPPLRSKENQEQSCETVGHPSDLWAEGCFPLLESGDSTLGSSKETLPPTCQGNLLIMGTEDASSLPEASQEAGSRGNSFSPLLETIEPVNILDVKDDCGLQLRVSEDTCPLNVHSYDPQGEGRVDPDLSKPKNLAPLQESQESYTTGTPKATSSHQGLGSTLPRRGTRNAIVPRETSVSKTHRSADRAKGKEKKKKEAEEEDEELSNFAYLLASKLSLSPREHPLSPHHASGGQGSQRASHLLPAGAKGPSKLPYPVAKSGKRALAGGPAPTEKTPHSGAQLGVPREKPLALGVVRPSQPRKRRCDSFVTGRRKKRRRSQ

Row | Variant | effect of a mutation on the interaction
5 | K319E | with no effect

Variants of: B3
Details: with fbln3_human EFEMP1, Q12805

Row | Variant | effect of a mutation on the interaction
6 | K319E | with no effect

Variants of: B4
Details: with goga2_human GOLGA2, Q08379

Row | Variant | effect of a mutation on the interaction
7 | R64H | with no effect

Variants of: B5
Details: with ikzf1_human IKZF1, Q13422
Sequence of ikzf1_human IKZF1, Q13422 (Q13422 whole entry): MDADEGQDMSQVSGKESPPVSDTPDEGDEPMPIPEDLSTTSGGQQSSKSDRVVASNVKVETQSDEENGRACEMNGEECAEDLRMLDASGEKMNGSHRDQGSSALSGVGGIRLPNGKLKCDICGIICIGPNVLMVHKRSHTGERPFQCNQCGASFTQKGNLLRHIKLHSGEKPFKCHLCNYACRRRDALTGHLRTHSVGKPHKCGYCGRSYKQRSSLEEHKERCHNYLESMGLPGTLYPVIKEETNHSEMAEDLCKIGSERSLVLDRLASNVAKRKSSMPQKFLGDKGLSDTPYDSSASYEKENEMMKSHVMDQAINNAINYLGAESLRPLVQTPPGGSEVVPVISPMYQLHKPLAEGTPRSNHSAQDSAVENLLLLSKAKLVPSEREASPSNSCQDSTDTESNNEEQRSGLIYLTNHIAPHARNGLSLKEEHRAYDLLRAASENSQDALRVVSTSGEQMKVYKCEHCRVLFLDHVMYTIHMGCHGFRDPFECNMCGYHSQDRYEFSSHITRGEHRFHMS

Row | Variant | effect of a mutation on the interaction
8 | R64H | with no effect

Variants of: B6
Details: with sdcb1_human SDCBP
Target sequence in this assay (O00560 whole entry): as the sequence (O00560 whole entry) above

Row | Variant | effect of a mutation on the interaction
9 | V358M | with no effect

Variants of: B7
Details: with stx4_human STX4, Q12846
Sequence of stx4_human STX4, Q12846 (Q12846 whole entry): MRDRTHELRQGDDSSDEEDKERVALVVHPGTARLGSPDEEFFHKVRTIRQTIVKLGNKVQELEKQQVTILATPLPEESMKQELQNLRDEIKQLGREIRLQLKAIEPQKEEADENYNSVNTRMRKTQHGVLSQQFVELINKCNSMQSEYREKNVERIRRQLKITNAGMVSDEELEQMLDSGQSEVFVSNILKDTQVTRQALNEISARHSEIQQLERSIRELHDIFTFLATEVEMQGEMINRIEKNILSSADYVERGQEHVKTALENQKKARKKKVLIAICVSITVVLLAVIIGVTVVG

Row | Variant | effect of a mutation on the interaction
10 | K199E | with no effect

Variants of: B8
Details: with snab_human NAPB

Row | Variant | effect of a mutation on the interaction
11 | K199E | disrupting interaction strength

Variants of: B9
Details: with dtnb_human DTNB

Row | Variant | effect of a mutation on the interaction
12 | L330F | with no effect
